This assay concerns the target mink ryanodine receptor type 3 (RyR3) (mink). The assay can be described thus: cryo-EM structure.

The values that follow come from article PMC11452665.

Substance “mink ryanodine receptor type 3 (RyR3) (natural protein)” showed a stoichiometry N of 4.
